The stoichiometry N is a count of units in the complex or per binding partner.

Drawing on PMC11228995, this text covers stoichiometry N for one substance.

The target in assay [1] is CXCL4. In words: native MS; chemokine (20 μM solution in 250 mM ammonium acetate) mixed with fondaparinux at 1:1 molar ratio, nanoelectrospray, spectra deconvoluted in UniDec.
The target of assay [2] is CXCL4. In words: native MS; pure chemokine, 20 μM in 250 mM ammonium acetate buffer, nanoelectrospray, Waters Synapt G2-S, ion mobility separation bypassed.

“And” between values parts separate entries of the source, which are not always exact repeats. Equal values may be shown once.

On to CXCL4 (natural protein), for which the stoichiometry N was 4 and 2 in the assay with CXCL4 [1]; 4 with CXCL4 [2].
